Laboratory results published in patent publication US20200040071A1 (HUB BIOTECH, published 2020).
Changes are numbered by the printed parent chain. Each block holds one binder with its values, some of them ahead of it.

Columns and labels:
[1] = molecular target: T1, endothelial monocyte activating polypeptide II (EMAP II) (UniProt Q12904 147-312, limits assumed); assay: SPR, Reichert SR7500DC, EMAP II fixed to PEG chip, antibody flowed
T1 construct: also called EMAP II antigen; EMAP II protein
T1 sequence (looked up): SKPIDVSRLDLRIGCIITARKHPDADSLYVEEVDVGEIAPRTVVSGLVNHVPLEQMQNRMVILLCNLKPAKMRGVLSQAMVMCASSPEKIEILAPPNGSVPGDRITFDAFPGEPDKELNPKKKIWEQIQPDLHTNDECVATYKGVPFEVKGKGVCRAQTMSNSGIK
Procedure: (§1) A surface plasmon resonance (SPR) method was used to further compare the antigen-binding abilities between BAP015-hum03 and BAP072-EMAP II-1. Reichert SR7500DC system (Reichert Technologies, Depew, N.Y.) was used for SPR, and Scrubber2 software was used for data collection. 2.5 μg of EMAP II protein was fixed to PEG chip (Reichert Technologies), after which BAP015-hum03 and BAP072-EMAP II-1 antibodies were flowed thereinto to compare the binding abilities therebetween.

[2] = molecular target: T1, endothelial monocyte activating …; assay: SPR (Reichert SR7500DC), EMAP II protein fixed to a PEG chip (ligand printed on the sheet as hAIMP1), antibody as analyte at 0-40 nM
Procedure: as §1

[3] = molecular target: T1, endothelial monocyte activating …; assay: ELISA, EMAP II coated at 1 ug/ml, anti-IgG-HRP detection, absorbance at 450 nm
Procedure: (§2) Each well of a 96-well plate was coated with 100 μl of EMAP II antigens at a concentration of 1 μg/ml, and incubated at 37° C. for 2 hours. The coated antigens were blocked with 5% BSA and washed with washing buffer solution. […] The resulting ones were washed 3 times with washing buffer solution, then treated with anti-IgG-HRP antibodies, and then incubated for 1 hour. Then, the resulting ones were washed 3 times with washing buffer solution, and treated with a substrate for 30 minutes at room temperature. Color development was performed, after which stop solution was inserted thereinto, such that absorbance was measured at a wavelength of 450 nm to test an antigen-binding ability of the antibodies.

[4] = molecular target: T1, endothelial monocyte activating …; assay: ELISA, plate coated with EMAP II antigen (1 µg/ml), detection with anti-IgG-HRP, OD 450 nm
Procedure: as §2

B1: BAP015-hum03 antibody (antibody, V domains shown)
VH: EVQLVQSGAEVKKPGATVKISCKVSGYTFTSYTMHWVRQAPGQGLEWMGYINPSSGFTNYNQKFKDRVTISADKSISTAYLQWSSLKASDTAMYYCASRFAYWGQG
VL: AIQLTQSPSSLSASVGDRVTITCKASQDVSTAVAWYQQKPGKAPKLLIYSASYRYTGVPSRFSGSGSGTDFTFTISRLEPEDFAVYYCQQHYSIPYTFGQG
notes: The printed variable regions end at FGQG (light) and WGQG (heavy), so they seem to stop short of the end of framework 4; also called anti-EMAP II parent antibody; control group
Kd [1]: 709 pM
koff [2]: 5.38e-05 s⁻¹
kon [2]: 75900 M⁻¹ s⁻¹

B2: BAP072-EMAP II-1 antibody (antibody, V domains shown)
VH: B1 VH with S54R, N61R, D66H, A97F
VL: B1 VL with T56W
Kd [1]: 63 pM
fold antigen-binding ability against BAP015-hum03 [1]: ~10 fold
concentration of antibodies to reach O.D 2.5 [3]: ≤ 10 ng/mL
fold antigen-binding ability against the other antibodies (BAP015-hum03, BAP072-EMAP II-2, II-3, II-4) [3]: ~10 fold
EC50 (read off the curve) [4]: ~7 ng/mL
koff [2]: 1.7e-06 s⁻¹
kon [2]: 27000 M⁻¹ s⁻¹

B4: BAP072-EMAP II-2 antibody (antibody, V domains shown)
VH: B1 VH with I51T, N61T, T69H, M93W
VL: B1 VL with T56W
notes: also called BAP072-EMAP 11-2
concentration of antibodies to reach O.D 2.5 [3]: ≥ 100 ng/mL

Further lines, results first:

concentration of antibodies to reach O.D 2.5 [3]: ≥ 100 ng/mL
B3: BAP072-EMAP II-3 antibody (antibody, V domains shown)
VH: B1 VH with S54R, N61R, D66H, A97F
VL: B1 VL with R54G
notes: also called BAP072-EMAP 11-3

concentration of antibodies to reach O.D 2.5 [3]: ≥ 100 ng/mL
B5: BAP072-EMAP II-4 antibody (antibody, V domains shown)
VH: B1 VH with I51T, N61T, T69H, M93W
VL: B1 VL with R54G
